doi:10.1101/2022.04.09.487726 (bioRxiv, 2022)

Target: the molecule itself
Assay: cryo-EM structure

B1: Redβ177-His6 (C-terminally truncated Redβ annealase of bacteriophage λ, residues 1-177) (domain or fragment, bacteriophage lambda (phage λ), UniProt P03698 1-177, looked up)
chain: MSTALATLAGKLAERVGMDSVDPQELITTLRQTAFKGDASDAQFIALLIVANQYGLNPWTKEIYAFPDKQNGIVPVVGVDGWSRIINENQQFDGMDFEQDNESCTCRIYRKDRNHPICVTEWMDECRREPFKTREGREITGPWQSHPKRMLRHKAMIQCARLAFGFAGIYDKDEAER
binding result: binds
